Measured values: patent publication US20250136963A1 (DENALI THERAPEUTICS, published 2025)

The binders below were run against T1, human apical domain TfR (human, UniProt P02786 198-378) (assay: SPR (Biacore 8K), fusion captured on Protein A chip, human TfR apical domain as analyte, 1:1 Langmuir fit, monovalent).
T1 construct: also called human TfR; human transferrin receptor 1 apical domain
Method: To determine whether IDUA-Fc fusion proteins with engineered TfR binding affects the ability of the modified Fc domain to interact with human TfR, the affinity of ETV:IDUA Fusions 3, 4, and 6 (Example 1) for human TfR was measured by surface plasmon resonance (SPR) using a Biacore 8K instrument (Cytiva). Five (5) μg/mL of the IDUA-Fc fusion proteins were captured for 1 minute on Protein A-coated Biacore™ Series S CM5 sensor chip and serial 3-fold dilutions of human apical domain TfR were injected at a flow rate of 30 μL/min. Each sample was analyzed with five consecutive 60-second injections with increasing human TfR concentrations followed by a 60-second dissociation at the end of the injection cycle. After each injection, the chip was regenerated using 10 mM glycine-HCl (pH 1.5). Binding response was corrected by subtracting the RU from a flow cell capturing an irrelevant IgG at similar density A. 1:1 Languir model of simultaneous fitting of kₒₙ and koff was used for kinetics analysis using Biacore™ Insight Evaluation Software.

T1 sequence (P02786 198-378 limits assumed): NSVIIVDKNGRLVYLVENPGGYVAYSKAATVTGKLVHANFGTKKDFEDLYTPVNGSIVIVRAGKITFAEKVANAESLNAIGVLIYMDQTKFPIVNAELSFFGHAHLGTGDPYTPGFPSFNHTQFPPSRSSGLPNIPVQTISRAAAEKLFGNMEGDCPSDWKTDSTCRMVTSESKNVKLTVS

| Kd [nM] | Binder |
| --- | --- |
| 340 | ETV:IDUA Fusion 3 (Fc fusion, Heterodimer of the two chains; also called third N-terminal monozyme IDUA-Fc fusion protein) chain 1: DKTHTCPPCPAPEAAGGPSVFLFPPKPKDTLMISRTPEVTCVVVDVSHEDPEVKFNWYVDGVEVHNAKTKPREEQYNSTYRVVSVLTVLHQDWLNGKEYKCKVSNKALSAPIEKTISKAKGQPREPQVYTLPPSRDELTKNQVSLWCLVKGFYPSDIAVEWESYGTEWANYKTTPPVLDSDGSFFLYSKLTVTKEEWQQGFVFSCSVMHEALHNHYTQKSLSLSPGK chain 2: EAPHLVQVDAARALWPLRRFWRSTGFCPPLPHSQADQYVLSWDQQLNLAYVGAVPHRGIKQVRTHWLLELVTTRGSTGRGLSYNFTHLDGYLDLLRENQLLPGFELMGSASGHFTDFEDKQQVFEWKDLVSSLARRYIGRYGLAHVSKWNFETWNEPDHHDFDNVSMTMQGFLNYYDACSEGLRAASPALRLGGPGDSFHTPPRSPLSWGLLRHCHDGTNFFTGEAGVRLDYISLHRKGARSSISILEQEKVVAQQIRQLFPKFADTPIYNDEADPLVGWSLPQPWRADVTYAAMVVKVIAQHQNLLLANTTSAFPYALLSNDNAFLSYHPHPFAQRTLTARFQVNNTRPPHVQLLRKPVLTAMGLLALLDEEQLWAEVSQAGTVLDSNHTVGVLASAHRPQGPADAWRAAVLIYASDDTRAHPNRSVAVTLRLRGVPPGPGLVYVTRYLDNGLCSPDGEWRRLGRPVFPTAEQFRRMRAAEDPVAAAPRPLPAGGRLTLRPALRLPSLLLVHVCARPEKPPGQVTRLRALPLTQGQLVLVWSDEHVGSKCLWTYEIQFSQDGKAYTPVSRKPSTFNLFVFSPDTGAVSGSYRVRALDYWARPGPFSDPVPYLEVPVPRGPPSPGNPGGGGSDKTHTCPPCPAPEAAGGPSVFLFPPKPKDTLMISRTPEVTCVVVDVSHEDPEVKFNWYVDGVEVHNAKTKPREEQYNSTYRVVSVLTVLHQDWLNGKEYKCKVSNKALSAPIEKTISKAKGQPREPQVYTLPPSRDELTKNQVSLSCAVKGFYPSDIAVEWESNGQPENNYKTTPPVLDSDGSFFLVSKLTVDKSRWQQGNVFSCSVMHEALHNHYTQKSLSLSPGK |
| 355 | ETV:IDUA Fusion 4 (Fc fusion, Heterodimer of the two chains; also called fourth N-terminal monozyme IDUA-Fc fusion protein) chain 1: DKTHTCPPCPAPEAAGGPSVFLFPPKPKDTLMISRTPEVTCVVVDVSHEDPEVKFNWYVDGVEVHNAKTKPREEQYNSTYRVVSVLTVLHQDWLNGKEYKCKVSNKALSAPIEKTISKAKGQPREPQVYTLPPSRDELTKNQVSLWCLVKGFYPSDIAVEWESYGTEWANYKTTPPVLDSDGSFFLYSKLTVTKEEWQQGFVFSCSVMHEALHNHYTQKSLSLSPGK chain 2: EAPHLVQVDAARALWPLRRFWRSTGFCPPLPHSQADQYVLSWDQQLNLAYVGAVPHRGIKQVRTHWLLELVTTRGSTGRGLSYNFTHLDGYLDLLRENQLLPGFELMGSASGHFTDFEDKQQVFEWKDLVSSLARRYIGRYGLAHVSKWNFETWNEPDHHDFDNVSMTMQGFLNYYDACSEGLRAASPALRLGGPGDSFHTPPRSPLSWGLLRHCHDGTNFFTGEAGVRLDYISLHRKGARSSISILEQEKVVAQQIRQLFPKFADTPIYNDEADPLVGWSLPQPWRADVTYAAMVVKVIAQHQNLLLANTTSAFPYALLSNDNAFLSYHPHPFAQRTLTARFQVNNTRPPHVQLLRKPVLTAMGLLALLDEEQLWAEVSQAGTVLDSNHTVGVLASAHRPQGPADAWRAAVLIYASDDTRAHPNRSVAVTLRLRGVPPGPGLVYVTRYLDNGLCSPDGEWRRLGRPVFPTAEQFRRMRAAEDPVAAAPRPLPAGGRLTLRPALRLPSLLLVHVCARPEKPPGQVTRLRALPLTQGQLVLVWSDEHVGSKCLWTYEIQFSQDGKAYTPVSRKPSTFNLFVFSPDTGAVSGSYRVRALDYWARPGPFSDPVPYLEVPVGGGGSDKTHTCPPCPAPEAAGGPSVFLFPPKPKDTLMISRTPEVTCVVVDVSHEDPEVKFNWYVDGVEVHNAKTKPREEQYNSTYRVVSVLTVLHQDWLNGKEYKCKVSNKALSAPIEKTISKAKGQPREPQVYTLPPSRDELTKNQVSLSCAVKGFYPSDIAVEWESNGQPENNYKTTPPVLDSDGSFFLVSKLTVDKSRWQQGNVFSCSVMHEALHNHYTQKSLSLSPGK |
| 200 | ETV:IDUA Fusion 6 (Fc fusion, Heterodimer of the two chains; also called C-terminal monozyme IDUA-Fc fusion protein) chain 1: DKTHTCPPCPAPEAAGGPSVFLFPPKPKDTLMISRTPEVTCVVVDVSHEDPEVKFNWYVDGVEVHNAKTKPREEQYNSTYRVVSVLTVLHQDWLNGKEYKCKVSNKALSAPIEKTISKAKGQPREPQVYTLPPSRDELTKNQVSLWCLVKGFYPSDIAVEWESYGTEWANYKTTPPVLDSDGSFFLYSKLTVTKEEWQQGFVFSCSVMHEALHNHYTQKSLSLSPGK chain 2: DKTHTCPPCPAPEAAGGPSVFLFPPKPKDTLMISRTPEVTCVVVDVSHEDPEVKFNWYVDGVEVHNAKTKPREEQYNSTYRVVSVLTVLHQDWLNGKEYKCKVSNKALSAPIEKTISKAKGQPREPQVYTLPPSRDELTKNQVSLSCAVKGFYPSDIAVEWESNGQPENNYKTTPPVLDSDGSFFLVSKLTVDKSRWQQGNVFSCSVMHEALHNHYTQKSLSLSPGKGGGGSEAPHLVQVDAARALWPLRRFWRSTGFCPPLPHSQADQYVLSWDQQLNLAYVGAVPHRGIKQVRTHWLLELVTTRGSTGRGLSYNFTHLDGYLDLLRENQLLPGFELMGSASGHFTDFEDKQQVFEWKDLVSSLARRYIGRYGLAHVSKWNFETWNEPDHHDFDNVSMTMQGFLNYYDACSEGLRAASPALRLGGPGDSFHTPPRSPLSWGLLRHCHDGTNFFTGEAGVRLDYISLHRKGARSSISILEQEKVVAQQIRQLFPKFADTPIYNDEADPLVGWSLPQPWRADVTYAAMVVKVIAQHQNLLLANTTSAFPYALLSNDNAFLSYHPHPFAQRTLTARFQVNNTRPPHVQLLRKPVLTAMGLLALLDEEQLWAEVSQAGTVLDSNHTVGVLASAHRPQGPADAWRAAVLIYASDDTRAHPNRSVAVTLRLRGVPPGPGLVYVTRYLDNGLCSPDGEWRRLGRPVFPTAEQFRRMRAAEDPVAAAPRPLPAGGRLTLRPALRLPSLLLVHVCARPEKPPGQVTRLRALPLTQGQLVLVWSDEHVGSKCLWTYEIQFSQDGKAYTPVSRKPSTFNLFVFSPDTGAVSGSYRVRALDYWARPGPFSDPVPYLEVPVPRGPPSPGNP |
